Reference: patent US20030198640A1 (Human Genome Sciences, published 2003)

T1: FLAG-tagged soluble form of TNF-gamma-beta (aa 72-251) (human, UniProt O95150 72-251)
T1 construct: also called FLAG-TL1β; FLAG-TNF-gamma-beta; not shown: FLAG tag of the pFLAG-CMV-1 vector at the amino terminus
T1 sequence: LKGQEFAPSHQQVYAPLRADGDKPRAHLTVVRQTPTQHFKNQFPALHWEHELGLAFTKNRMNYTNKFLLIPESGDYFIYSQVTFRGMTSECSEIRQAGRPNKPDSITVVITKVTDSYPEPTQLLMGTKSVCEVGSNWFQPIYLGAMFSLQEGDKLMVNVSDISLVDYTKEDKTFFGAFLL

T2: TNF-gamma-β polypeptide (amino acid residues 72-251 of SEQ ID NO:2), untagged recombinant protein (human, UniProt O95150 72-251)
T2 construct: also called TL1β
T2 sequence: T1 sequence

T3: TR6-Fc (full-length human TNFR-6 alpha, SEQ ID NO:6 aa 1-300, fused to the Fc domain of human IgG1) (human, UniProt O95407 30-300)
T3 construct: also called TNFR-6 alpha Fc fusion protein; DcR3-Fc; not shown: Fc domain of human IgG1
T3 sequence: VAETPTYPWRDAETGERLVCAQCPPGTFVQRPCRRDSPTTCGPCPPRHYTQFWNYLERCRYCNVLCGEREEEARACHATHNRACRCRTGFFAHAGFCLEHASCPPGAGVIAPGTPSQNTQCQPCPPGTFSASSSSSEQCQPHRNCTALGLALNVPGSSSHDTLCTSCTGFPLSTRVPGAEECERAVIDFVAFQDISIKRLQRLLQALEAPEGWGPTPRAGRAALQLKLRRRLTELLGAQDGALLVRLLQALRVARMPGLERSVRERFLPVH

T4: DR6 (Fc-fusion form of the extracellular domain) (UniProt O75509 42-349, limits assumed)
T4 construct: extracellular domain; not shown: Fc part
T4 sequence (looked up): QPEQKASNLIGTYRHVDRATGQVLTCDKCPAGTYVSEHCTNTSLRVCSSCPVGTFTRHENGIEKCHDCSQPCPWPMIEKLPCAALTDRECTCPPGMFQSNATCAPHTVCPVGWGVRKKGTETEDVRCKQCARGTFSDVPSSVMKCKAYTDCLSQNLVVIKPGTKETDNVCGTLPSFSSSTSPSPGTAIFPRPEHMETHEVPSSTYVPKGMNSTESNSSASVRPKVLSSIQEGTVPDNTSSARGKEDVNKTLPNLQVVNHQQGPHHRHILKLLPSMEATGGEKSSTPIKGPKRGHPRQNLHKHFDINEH

B1: TACI-Fc (extracellular domain of human TACI, aa 1-159, fused to the Fc domain of human IgG1) (Fc fusion, UniProt O14836 1-159, looked up)
chain: MSGLGRSRRGGRSRVDQEERFPQGLWTGVAMRSCPEEQYWDPLLGTCMSCKTICNHQSQRTCAAFCRSLSCRKEQGKFYDHLLRDCISCASICGQHPKQCAYFCENKLRSPVNLPPELRRQRSGEVENNSDNSGRYQGLEHRGSEASPALPGLKLSADQ
notes: range 1-159; also called TAC1 (Fc-fusion); not shown: Fc domain of human IgG1
B2: DR3-Fc (extracellular domain of human DR3, aa 1-199, fused at its C-terminus to the Fc domain of human IgG1) (Fc fusion)
chain: QGGTRSPRCDCAGDFHKKIGLFCCRGCPAGHYLKAPCTEPCGNSTCLVCPQDTFLAWENHHNSECARCQACDEQASQVALENCSAVADTRCGCKPGWFVECQVSQCVSSSPFYCQPCLDCGALHRHTRLLCSRRDTDCGTCLPGFYEHGDGCVSCPTSTLGSCPERCAAVCGWRQ
notes: not shown: Fc domain of human IgG1
B3: full length TNF-gamma-beta expressed on the cell surface (HEK293F stable transfectants; cells transfected with TNF-gamma-β) (ligand)
chain: MAEDLGLSFGETASVEMLPEHGSCRPKARSSSARWALTCCLVLLPFLAGLTTYLLVSQLRAQGEACVQFQALKGQEFAPSHQQVYAPLRADGDKPRAHLTVVRQTPTQHFKNQFPALHWEHELGLAFTKNRMNYTNKFLLIPESGDYFIYSQVTFRGMTSECSEIRQAGRPNKPDSITVVITKVTDSYPEPTQLLMGTKSVCEVGSNWFQPIYLGAMFSLQEGDKLMVNVSDISLVDYTKEDKTFFGAFLL
notes: also called TNF-gamma-beta expressing cells
B4: BCMA-Fc (Fc fusion, human, UniProt Q02223 1-54, looked up)
chain: MLQMAGQCSQNEYFDSLLHACIPCQLRCSSNTPPLTCQRYCNASVTNSVKGTNA
notes: not shown: Fc part

Experiments:
[1] = molecular target: T1, FLAG-tagged soluble form of …; assay: co-immunoprecipitation with protein A-Sepharose, anti-Flag blot
Description: The beads were then precipitated and washed extensively with PBST buffer (PBS, 0.5% Triton X-100) before boiled in SDS-sample buffer. Proteins were resolved on 4-20% Tris-Glycine gels (NOVEX), transferred to nitrocellulose membranes, and blotted with anti-Flag M2 monoclonal antibody (1 microgram/ml, Sigma) and horseradish peroxidase (HRP)-conjugated goat anti-mouse IgG antibody (0.5 microgram/ml).

[2] = molecular target: B3; assay: flow cytometry on HEK293F cells expressing full length TNF-gamma-beta
Experimental: (§1) These cells were used to screen the Fc-fusion form of the extracellular domain of TNFR family members, including TNFR1, Fas, HveA, DR3, DR4, DR5, DR6, DcR1, DcR2, TR6, OPG, RANK, AITR, TAC1, CD40, and OX40. […] TR6 has been previously described as a decoy receptor (Pitti et al., Nature 396:699-703 (1998); Yu et al., J. Biol. Chem. 274:13733-6 (1999)) capable of competing with Fas and HveA for binding of FasL and LIGHT, respectively.
(§2) One million cells, in 0.1 ml of FACS buffer (PBS, 0.1% BSA, 0.1% NaN₃), were incubated with 0.1-1 microgram of protein or antibody at RT for 15 min. The cells were washed with 3 ml of FACS buffer, reacted with biotinylated primary antibody, and stained with PE-conjugated secondary antibody at RT for 15 min. Cells were then washed again, resuspended in 0.5 microgram/ml of propidium iodide, and live cells were gated and analyzed on a FACScan using the CellQuest software (BD Biosciences).

[3] = molecular target: T2, TNF-gamma-β polypeptide (amino acid …); assay: BIAcore, DR3-Fc immobilised, three batches of TNF-gamma-beta; DR3-Fc
Experimental: (§3) TNFR-Fc were covalently immobilized to the BIAcore sensor chip (CM5 chip) via amine groups using N-ethyl-N′-(dimethylaminopropyl) carbodiimide/N-hydroxysuccinimide chemistry. […] The amount of bound protein was determined during washing of the flow cell with HBS buffer (10 mM HEPES, pH 7.4, 150 mM NaCl, 3.4 mM EDTA, 0.005% Surfactant P20). The flow cell surface was regenerated by displacing bound protein by washing with 20 microliters of 10 mM glycine-HCl, pH 2.3. For kinetic analysis, the on and off rates were determined using the kinetic evaluation program in BIAevaluation 3 software using a 1:1 binding model and the global analysis method.

[4] = molecular target: T2, TNF-gamma-β polypeptide (amino acid …); assay: BIAcore, DR3-Fc immobilised, average of three batches; DR3-Fc, average of three batches
Experimental: as §3

[5] = molecular target: T3, TR6-Fc (full-length human TNFR-6 alpha, …); assay: FACS on transfected cells
[6] = molecular target: T4, DR6 (Fc-fusion form of the …); assay: flow cytometry on HEK293F cells expressing full length TNF-gamma-beta
Experimental: as §1, §2

[7] = molecular target: T2, TNF-gamma-β polypeptide (amino acid …); assay: BIAcore, control receptor surface
Experimental: as §3

B1
binding result [1]: no binding | binding result [2]: no binding

B2
koff [3]: 0.00413 s⁻¹ | kon [3]: 639000 M⁻¹ s⁻¹ | Kd [4]: 6.45 nM

B3
binding result [5]: binds | binding result [6]: no binding

B4
binding result [7]: no binding (tested: 370 nM (top of the range 3-370 nM))
